Test results from PMC9302186, “Defining variant-resistant epitopes targeted by SARS-CoV-2 antibodies: A global consortium study” (Science (New York, N.y.), 2021).

Biological target: T1, SARS-CoV-2 spike trimer (as imaged by NS-EM) (SARS-CoV-2, ancestral (Wuhan-Hu-1, …, UniProt P0DTC2))
T1 construct: also called spike trimers; spike protein
Experiment: negative-stain electron microscopy
Conditions: both partners purified

B1: CoVIC-259 (antibody, V domains shown)
VH: EVQLVESGGGVVQPGRSLRLSCAASGFTFSSYAMHWVRQAPGKGLEWVAVLSYDGSNKYNADSVKGRFTISRDNSKNTLYLQMNSLRVEDTAMYYCARDGVSVTMVRGVIGPLCDYWGQGTLVTVSS
VL: not shown
notes: also called RBD-1 community representative
binding result: binds
